Patent US20150239980A1 (NEOTOPE BOSCIENCES, published 2015)

T1: human MCAM (melanoma cell adhesion molecule) expressed on transfected CHO cells (human, UniProt P43121 24-646)
T1 construct: also called hMCAM; CD146
T1 chain: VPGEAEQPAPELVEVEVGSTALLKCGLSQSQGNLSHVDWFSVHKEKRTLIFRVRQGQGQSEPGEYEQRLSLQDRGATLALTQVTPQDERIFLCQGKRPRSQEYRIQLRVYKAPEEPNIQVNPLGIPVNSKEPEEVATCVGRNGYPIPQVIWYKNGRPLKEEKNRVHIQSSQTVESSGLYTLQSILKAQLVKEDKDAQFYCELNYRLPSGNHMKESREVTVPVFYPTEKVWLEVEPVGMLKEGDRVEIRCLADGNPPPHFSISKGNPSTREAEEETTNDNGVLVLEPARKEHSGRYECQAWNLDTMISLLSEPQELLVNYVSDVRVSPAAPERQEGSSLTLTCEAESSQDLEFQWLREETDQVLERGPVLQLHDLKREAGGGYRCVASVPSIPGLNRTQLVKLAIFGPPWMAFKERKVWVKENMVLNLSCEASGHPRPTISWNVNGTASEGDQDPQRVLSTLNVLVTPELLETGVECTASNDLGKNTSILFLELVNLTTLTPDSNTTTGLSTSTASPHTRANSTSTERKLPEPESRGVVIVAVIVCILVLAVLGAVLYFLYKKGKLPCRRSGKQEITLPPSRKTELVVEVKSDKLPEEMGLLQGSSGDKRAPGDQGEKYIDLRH

T2: recombinant hMCAM-His (human, UniProt P43121 24-559)
T2 construct: not shown: His tag
T2 chain: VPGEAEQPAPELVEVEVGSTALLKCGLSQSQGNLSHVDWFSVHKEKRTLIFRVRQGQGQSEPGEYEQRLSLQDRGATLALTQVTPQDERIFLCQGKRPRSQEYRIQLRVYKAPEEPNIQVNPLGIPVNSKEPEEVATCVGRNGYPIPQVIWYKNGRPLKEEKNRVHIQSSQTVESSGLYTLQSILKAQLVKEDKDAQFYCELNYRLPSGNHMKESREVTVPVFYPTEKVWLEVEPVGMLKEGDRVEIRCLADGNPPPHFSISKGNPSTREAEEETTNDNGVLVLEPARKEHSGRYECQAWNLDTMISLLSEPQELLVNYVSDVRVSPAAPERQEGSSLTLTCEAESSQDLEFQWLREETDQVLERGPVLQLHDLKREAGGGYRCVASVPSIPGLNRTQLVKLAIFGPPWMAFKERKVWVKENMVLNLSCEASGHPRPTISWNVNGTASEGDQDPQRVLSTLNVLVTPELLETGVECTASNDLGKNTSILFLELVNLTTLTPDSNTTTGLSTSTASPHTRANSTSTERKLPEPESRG

B1: h2120_VH1 + h2120_VL1 (antibody, human IgG1, V domains shown)
VH: QVTLKESGPVLVKPTETLTLTCTVSGFSLTSNGVSWVRQPPGKALEWIAAISSGGTTYYNSAFKSRLTISRDTSKSQVVLTMTNMDPVDTATYYCARRYGYGWYFDFWGQGTLVTVSS
VL: DIQMTQSPSSLSASVGDRVTITCKASQNIYNSLAWYQQKPGKAPKVLIFNANSLQTGIPSRFSGSGSGTDFTLTISSLQPEDFATYYCQQFYSGYTFGQGTKLEIK
B2: h2120_VH1 + h2120_VL2 (antibody, human IgG1, V domains shown)
VH: QVTLKESGPVLVKPTETLTLTCTVSGFSLTSNGVSWVRQPPGKALEWIAAISSGGTTYYNSAFKSRLTISRDTSKSQVVLTMTNMDPVDTATYYCARRYGYGWYFDFWGQGTLVTVSS
VL: DIQMTQSPSSLSASVGDRVTITCKASQNIYNSLAWYQQKPGKAPKVLIFNANSLQTGVPSRFSGSGSGTDFTLTISSLQPEDFATYYCQQFYSGYTFGQGTKLEIK
B3: h2120_VH4 + h2120_VL3 (antibody, human IgG1, V domains shown)
VH: QVTLKESGPVLVKPTETLTLTCTVSGFSLTSQGVSWVRQPPGKALEWIAAISSGGTTYYNSAFKSRLTISRDTSKSQVVLTMTNMDPVDTATYYCARRYGYGWYFDFWGQGTLVTVSS
VL: DIQMTQSPSSLSASVGDRVTINCKASQNIYNSLAWYQQKPGKAPKVLIFNANSLQTGIPSRFSGSGSGTDFTLTISSLQPEDFATYYCQQFYSGYTFGQGTKLEIK
B4: h2107_VH1 + h2107_VL1 (antibody, human IgG1, V domains shown)
VH: QVTLKESGPVLVKPTETLTLTCTVSGFSLTSNGVSWVRQPPGKALEWIAAISSGGSTYYNSAFKSRLTISRDTSKSQVVLTMTNMDPVDTATYYCARHRPFYFDYWGQGTLVTVSS
VL: DIQMTQSPSSLSASVGDRVTITCKGSQNIYKSLAWFQQKPGKVPKLLIYDANSLQTGIPSRFSGSGSGTDFTLTISSLQPEDVATYYCQQYYSGYTFGGGTKVEIK
B5: h2107_VH6 + h2107_VL1 (antibody, human IgG1, V domains shown)
VH: QVTLKESGPVLVKPTETLTLTCTVSGFSLTSNAVSWVRQPPGKALEWIAAISSGGSTYYNSAFKSRLTISRDTSKSQVVLTMTNMDPVDTATYYCARHRPFYFDYWGQGTLVTVSS
VL: DIQMTQSPSSLSASVGDRVTITCKGSQNIYKSLAWFQQKPGKVPKLLIYDANSLQTGIPSRFSGSGSGTDFTLTISSLQPEDVATYYCQQYYSGYTFGGGTKVEIK
B6: h2107_VH1 + h2107_VL3 (antibody, human IgG1, V domains shown)
VH: QVTLKESGPVLVKPTETLTLTCTVSGFSLTSNGVSWVRQPPGKALEWIAAISSGGSTYYNSAFKSRLTISRDTSKSQVVLTMTNMDPVDTATYYCARHRPFYFDYWGQGTLVTVSS
VL: DIQMTQSPSSLSASVGDRVTINCKGSQNIYKSLAWFQQKPGKVPKLLIYDANSLQTGIPSRFSGSGSGTDFTLTISSLQPEDVATYYCQQYYSGYTFGGGTKVEIK
B7: h2107_VH5 + h2107_VL1 (antibody, human IgG1, V domains shown)
VH: QVTLKESGPVLVKPTETLTLTCTVSGFSLTSQGVSWVRQPPGKALEWIAAISSGGSTYYNSAFKSRLTISPDTSKSQVVLTMTNMDPVDTATYYCARHRPFYFDYWGQGTLVTVSS
VL: DIQMTQSPSSLSASVGDRVTITCKGSQNIYKSLAWFQQKPGKVPKLLIYDANSLQTGIPSRFSGSGSGTDFTLTISSLQPEDVATYYCQQYYSGYTFGGGTKVEIK
B8: h2107_VH5 + h2107_VL3 (antibody, human IgG1, V domains shown)
VH: QVTLKESGPVLVKPTETLTLTCTVSGFSLTSQGVSWVRQPPGKALEWIAAISSGGSTYYNSAFKSRLTISPDTSKSQVVLTMTNMDPVDTATYYCARHRPFYFDYWGQGTLVTVSS
VL: DIQMTQSPSSLSASVGDRVTINCKGSQNIYKSLAWFQQKPGKVPKLLIYDANSLQTGIPSRFSGSGSGTDFTLTISSLQPEDVATYYCQQYYSGYTFGGGTKVEIK
B9: h2107_VH6 + h2107_VL3 (antibody, human IgG1, V domains shown)
VH: QVTLKESGPVLVKPTETLTLTCTVSGFSLTSNAVSWVRQPPGKALEWIAAISSGGSTYYNSAFKSRLTISRDTSKSQVVLTMTNMDPVDTATYYCARHRPFYFDYWGQGTLVTVSS
VL: DIQMTQSPSSLSASVGDRVTINCKGSQNIYKSLAWFQQKPGKVPKLLIYDANSLQTGIPSRFSGSGSGTDFTLTISSLQPEDVATYYCQQYYSGYTFGGGTKVEIK
B10: h2107_VH5 + h2107_VL2 (antibody, human IgG1, V domains shown)
VH: QVTLKESGPVLVKPTETLTLTCTVSGFSLTSQGVSWVRQPPGKALEWIAAISSGGSTYYNSAFKSRLTISPDTSKSQVVLTMTNMDPVDTATYYCARHRPFYFDYWGQGTLVTVSS
VL: DIQMTQSPSSLSASVGDRVTITCKGSQNIYKSLAWFQLKPGKVPKLLIYDANSLQTGIPSRFSGSGSGTDFTLTISSLQPEDVATYYCQQYYSGYTFGGGTKVEIK
B11: h2107_VH6 + h2107_VL2 (antibody, human IgG1, V domains shown)
VH: QVTLKESGPVLVKPTETLTLTCTVSGFSLTSNAVSWVRQPPGKALEWIAAISSGGSTYYNSAFKSRLTISRDTSKSQVVLTMTNMDPVDTATYYCARHRPFYFDYWGQGTLVTVSS
VL: DIQMTQSPSSLSASVGDRVTITCKGSQNIYKSLAWFQLKPGKVPKLLIYDANSLQTGIPSRFSGSGSGTDFTLTISSLQPEDVATYYCQQYYSGYTFGGGTKVEIK

Key:
[1] = biological target: T1, human MCAM (melanoma cell adhesion …); assay: laminin/FACS on hMCAM CHO cells, competitor laminin 411; Expt#2; vs rodent 2120
Experimental: (§1) Following incubation for 30-45 minutes, the cells were washed and anti-laminin conjugated to AF650 (NovusBio) was added to detect the bound laminin. The cells were run on a flow cytometer to measure the laminin binding signal.

[2] = biological target: T2, recombinant hMCAM-His; assay: ForteBio Octet Red, hMCAM-His analyte; Forte column 1; vs rodent 2120
Experimental: (§2) The affinities were measured using the ForteBio Octet Red. Anti-human Fc sensors were used to capture the humanized antibodies, and several concentrations of hMCAMHis analyte were used to determine the affinity using a 1:1 fitting model.

[3] = biological target: T1, human MCAM (melanoma cell adhesion …); assay: laminin/FACS on hMCAM CHO cells, competitor laminin 411; Expt#1; vs rodent 2120
Experimental: as §1

[4] = biological target: T2, recombinant hMCAM-His; assay: summary of ForteBio, hMCAM-His; vs rodent 2120
Experimental: as §2

[5] = biological target: T2, recombinant hMCAM-His; assay: competitive ELISA on hMCAM-His, competitor biotinylated rodent or chimeric 2120; vs rodent 2120
Experimental: (§3) ELISA plates were coated with recombinant hMCAM-His, and blocked with casein buffer to prevent non-specific binding. Biotinylated rodent or chimeric antibody was added at a subsaturating concentration, in the presence or absence of 3× increasing concentrations of unlabeled competitor (humanized antibody, rodent, or chimeric). After washing to remove unbound antibody, streptavidin HRP was added to allow detection of the biotinylated antibody. The ELISA was developed with TMB substrate and the OD450 was measured. The IC50 of the unlabeled competitor was determined using the GraphPad Prism5 software.

[6] = biological target: T1, human MCAM (melanoma cell adhesion …); assay: laminin/FACS on hMCAM CHO cells, competitor laminin 411; Expt#2; reference row with 1.0 is chimeric 2107
Experimental: as §1

[7] = biological target: T1, human MCAM (melanoma cell adhesion …); assay: laminin/FACS on hMCAM CHO cells, competitor laminin 411; Expt#1; vs rodent 2107
Experimental: as §1

[8] = biological target: T2, recombinant hMCAM-His; assay: competitive ELISA on hMCAM-His, competitor biotinylated rodent or chimeric 2107; vs rodent 2107
Experimental: as §3

[9] = biological target: T2, recombinant hMCAM-His; assay: ForteBio Octet Red, hMCAM-His analyte; Forte column 1; vs rodent 2107
Experimental: as §2

[10] = biological target: T2, recombinant hMCAM-His; assay: ForteBio Octet Red, hMCAM-His analyte; Forte column 2; vs rodent 2107
Experimental: as §2

Binder | fold over rodent (blocking, laminin/FACS) [1] | fold over rodent (Forte affinity) [2] | fold over rodent (blocking, laminin/FACS) [3] | fold reduction in affinity as measured by ForteBio [4] | fold over rodent (competitive ELISA) [5] | fold over rodent (blocking, laminin/FACS) [6] | fold over rodent (blocking, laminin/FACS) [7] | fold over rodent (competitive ELISA) [8] | fold over rodent (Forte affinity) [9] | fold over rodent (Forte affinity) [10]
B1 | 3.5 fold | 8.8 fold | 2 fold | > 5 fold | 3.1 fold | – | – | – | – | –
B2 | 12.6 fold | 10.8 fold | 4.6 fold | > 5 fold | 3.1 fold | – | – | – | – | –
B3 | 5.6 fold | 17.4 fold | 3.8 fold | > 5 fold | 5 fold | – | – | – | – | –
B4 | – | – | – | – | – | 2.1 fold | 2.3 fold | 2.1 fold | 12.9 fold | –
B5 | – | – | – | – | – | – | – | 15.3 fold | 36.8 fold | –
B6 | – | – | – | – | – | 2 fold | 2.6 fold | 2.3 fold | 16.3 fold | –
B7 | – | – | – | – | – | – | – | 3.7 fold | 28.2 fold | –
B8 | – | – | – | – | – | – | – | 3.4 fold | 33.2 fold | –
B9 | – | – | – | – | – | – | – | 9.9 fold | 22.1 fold | –
B10 | – | – | – | – | – | 1.5 fold | 1.6 fold | 1.3 fold | 5.9 fold | 6 fold
B11 | – | – | – | – | – | 2.3 fold | 4.8 fold | 3.5 fold | 5.2 fold | 5.5 fold
